Experimental data published in patent US20120071629A1, “APPOPTOSIN AND USES THEREOF FOR TREATING NEURODEGENERATIVE DISEASE AND CANCER” (Tsinghua University, priority 2006, published 2012).

Experiments:
N2a cells = assay: BH3I- and staurosporine-induced caspase 3 cleavage/activation; format: cell-based
Method: N2a cells were first subjected to downregulation of 168 by RNAi, and were then treated with apoptotic reagents BH3I and staurosporine. […] In addition, 168 is subjected to cleavage under apoptotic treatments (indicated by *).

mouse fibroblast cells = assay: 168-mediated apoptosis in APP WT and APP/APLP2 DKO cells, annexin V/PI double staining; format: cell-based; settings: mouse fibroblast cells transfected with 168
Description: APP wild type (WT) and APP/APLP2 double knockout (DKO) mouse fibroblast cells were transfected with control (vector) or 168.

Notch = assay: Notch/NICD conversion, Western blot; format: cell-based; settings: overexpression of 168; NotchΔE-myc transfected N2a cells; ratios of NICD to Notch
Description: (§1) N2a cells stably expressing human APP695 were transfected with NotchΔE-myc(Notch lacking its ectodomain and carrying a myc tag at its C-terminus) for 1 day. Cells were split equally and transfected with 168 with different dosage for 2 days. Conditional media were collected for sAPPα and secretary Aβ assays. Cells were lysed in 6% SDS and assayed for Notch/NICD conversion and APP metabolism. 168/FLJ20551 and Notch/NICD were detected using myc antibody 9E10. APP AICD was detected using APP C-terminus antibody 369. APP βCTFs, intracellular Aβ, and secretary Aβ in conditional media were immunoprecipitated using antibody 4G8 and detected using antibody 6E10. Soluble APPα were detected using 6E10. α-tubulin was used as control.

[1] = system: N2a cells stably expressing human APP Swedish mutations; assay: Aβ40 generation, IP and urea gel; format: cell-based; settings: overexpression of 168, 2 days, secreted Aβ in conditional media
Method: N2a cells stably expressing human APP Swedish mutations were transfected with 168 for 2 days. Secretary Aβ in conditional media were immunoprecipitated using antibody 4G8 and detected using antibody 6E10. The samples were analyzed using Urea gel, which can differentiate variant Aβ species.

239T cells = assay: Apoptosis by annexin V/PI double staining after 168 expression; format: cell-based
APP-AICD(C99) = target: T1, APP-AICD(C99) (Homo sapiens, UniProt P05067); assay: Anti-myc IP and anti-HA Western blot in co-transfected 293T cells; format: binding
T1 construct: Deletion mutants of HA-168 and myc-tagged APP-AICD(C99) were co-transfected into 293T cells; myc; expressed in transfected cells; host or cells: 293T cells
Description: IP-WB the minimal domain of 168 to interact with AICD is 118-264AA. Deletion mutants of HA-168 and myc-tagged APP-AICD(C99) were co-transfected into 293T cells and cell lysates subjected to anti-myc IP and anti-HA WB to detect 168-APP interaction (upper panel). Protein expressions are shown in the middle and lower panels.

APP-AICD (AID) = target: T2, APP-AICD (AID) (Homo sapiens, UniProt P05067); assay: Yeast two-hybrid assay with quantitative β-galactosidase activity; format: binding; settings: yeast AH109 co-transfected with pGBKT7-AID; ONPG substrate
T2 construct: The intracellular end of human APP was amplified, i.e., AID, was amplified; expressed in transfected cells; host or cells: yeast AH109
Description: The interaction of AICD-Ga14 activation domain (AD) with 168(264-304) fragment-DNA binding domain (DBD) activates GAL4-driven beta-galactosidase expression in yeast.
The intracellular end of human APP was amplified, i.e., AID, was amplified. In order to completely expose AID, 5 amino acids of Aβ and […] (SEQ ID NO:9) were extended in front of AID. The PCR product was recovered and purified. It was then inserted into protein expression vector pGBKT7 for identification by means of sequencing. The successfully constructed vector is named pGBKT7-AID. Positively identified pGBKT7-AID was transferred into yeast AH109, and then cultured on a SD/-Trp plate. […]
Screening and Identification of Positive Clones: Yeast expression vector pGBKT7 contained the autocrine gene of Trp (tryptophan) and the DNA binding domain of GAL4. pACT2 contained the autocrine gene of Leu (leucine) and the DNA activation structure domain. […] The results were compared and analyzed against information available in GenBank.
Quantitative Analysis of β-galactosidase Activity: Yeast co-transfected positive clones grown on the plate were picked and cultured further in a SD/Leu/-Trp liquid culture medium at 30° C. overnight. […] The solution was centrifuged and the supernatant was taken to measure its absorbance at 420 nm to calculate its β-galactosidase activity. […]

APP = target: T3, APP (Homo sapiens, UniProt P05067); assay: Anti-APP (369) IP and anti-myc Western blot in co-transfected 293T cells; format: binding; settings: myc-168 or deletion mutants co-transfected with APP into 293T cells
T3 construct: expressed in transfected cells; host or cells: 293T cells
Description: Protein expressions are shown in the middle and lower panels.
Deletion mutants of myc-168 and APP were co-transfected into 293T cells and cell lysates subjected to anti-APP (369) IP and anti-myc WB to detect 168-APP interaction (upper panel).

[2] = system: mitochondrial membrane potential; assay: Mitochondrial membrane potential after 168 expression; format: cell-based
Description: MCCP: an ionophore to disrupt proton gradient used as a positive control to decrease mitochondrial membrane potential.

[3] = system: N2a cells stably expressing human APP695; assay: Aβ generation and APP metabolism, IP and Western blot; format: cell-based
Description: as §1

293T cells = assay: Cytochrome c release from mitochondria, immunoblotting of mitochondria and cytosol; format: cell-based; settings: 293T cells transfected with 168
Description: Mitochrondia and cytosol were isolated from 293T cells transfected with 168 and subjected to immunoblotting with different antibodies: Tubulin serves as a cytosol marker and CoxIV as a mitochondrial marker.

## CN[C@@H]1C[C@H]2O[C@@](C)([C@@H]1OC)n1c3ccccc3c3c4c(c5c6ccccc6n2c5c31)C(=O)NC4 [staurosporine]
N2a cells
  caspase 3 cleavage for activation upon apoptotic treatment: cleaved

B1: 168: Appoptosin polypeptide; human amino acid sequence SEQ ID NO:2; expressed in cells by transfection (protein)
chain: MIQNSRPSLLQPQDVGDTVETLMLHPVIKAFLCGSISGTCSTLLFQPLDLLKTRLQTLQPSDHGSRRVGMLAVLLKVVRTESLLGLWKGMSPSIVRCVPGVGIYFGTLYSLKQYFLRGHPPTALESVMLGVGSRSVAGVCMSPITVIKTRYESGKYGYESIYAALRSIYHSEGHRGLFSGLTATLLRDAPFSGIYLMFYNQTKNIVPHDQVDATLIPITNFSCGIFAGILASLVTQPAGVIKTHMQLYPLKFQWIGQAVTLIFKDYGLRGFFQGGIPRALRRTLMAAMAWTVYEEMMAKMGLKS
modifications: Description of Artficial Sequence note = synthetic construct
notes: Appoptosin polypeptide; expressed in cells by transfection
Mouse fibroblast cells
  168-induced cell apoptosis in APP/APLP2 DKO cells compared with APP WT cells: dramatically less
Notch
  conversion of Notch to NICD: does not affect
[1]
  Aβ40 generation: reduces Aβ40 generation in a dose-dependent manner
239T cells
  apoptosis: induces apoptosis
APP-AICD(C99); HA-168 deletion mutants and myc-tagged C99 co-transfected into 293T cells
  interaction with APP-AICD(C99) in cells: interacts
APP-AICD(C99); IP-WB
  minimal domain of 168 to interact with AICD: 118-264AA
APP-AICD (AID)
  intensity of interaction with AID (bait protein) by β-galactosidase activity: fairly intense
APP
  interaction with APP in IP-WB: interacts
[2]
  mitochondrial membrane potential: decrease
[3]; overexpression of 168, conditional media
  sAPPα: slightly increases
[3]; overexpression of 168, different dosage, 2 days
  Aβ generation: inhibits Aβ generation in a dose-dependent manner
293T cells
  cytochrome c release from mitochondria: induces cytochrome c release

B2: 118-304AA: deletion mutant of myc-168, amino acids 118-304 (protein)
chain: GHPPTALESVMLGVGSRSVAGVCMSPITVIKTRYESGKYGYESIYAALRSIYHSEGHRGLFSGLTATLLRDAPFSGIYLMFYNQTKNIVPHDQVDATLIPITNFSCGIFAGILASLVTQPAGVIKTHMQLYPLKFQWIGQAVTLIFKDYGLRGFFQGGIPRALRRTLMAAMAWTVYEEMMAKMGLKS
modifications: left off: small tags and cut ends
APP
  interaction with APP in IP-WB: still detected
